Residue numbers refer to the chain shown, from its start. Names may count otherwise.
B1: C33B96 (antibody, IgG1, V domains shown)
VH: EVQLVESGGGLVQPGGSLRLSCAASGFTFSSYWMTWVRPAPGKGLEWVANIKRDGGEKYYVDSVKGRFTISRDNAANSLYLQMNSLRVEDTAVYYCARPFYDHFDYWGQGTLVTVSS
VL: SYVLTQPPSVAVAPGQTARITCGGSNIGKISVHWYQQKAGQAPVLVVHDDRARPSGIPERLSGSNSGTTATLTISRVEVGDEADYYCQVWNSSSVHPVFGGGTKLTVL
notes: huIgG1 F405L; also called C33F101; C33H99/C33L37
B2: C33B107 (antibody, IgG1, V domains shown)
VH: EVQLLESGGGLVQPGGSLGLSCAASGFTFSGYAMSWVRQAPGKGLNWVSAIDYSGNDTYYADSVKGRFTISRDNSKNTLYLQMNSLRAEDTAVYYCAKESQLLHGLFEHWGQGILVTVSS
VL: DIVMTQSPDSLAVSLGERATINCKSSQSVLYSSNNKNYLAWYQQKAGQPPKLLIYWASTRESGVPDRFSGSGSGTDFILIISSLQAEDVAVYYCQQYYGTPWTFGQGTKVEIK
notes: huIgG1 F405L; also called C33F112; C33H68/C33L17
B3: C33B54 (antibody, IgG1, V domains shown)
VH: QVQLQQSGPGLVKPSQTLSLTCAISGDSVSSNSAAWNWIRQSPSRGLEWLGRTYYRSKWYNDYAVSVRSRITINPDTSKNQFSLQLNSVTPEDTAVYHCARETMFRGLMDYWGQGTLVTVSS
VL: SYVLTQPPSVSVAPGQTARITCGGSNIGSKSVHWYQQKPGQAPVMVVYDDSDRPSGIPERFSGSNSGNTATLTISRVEAGDEADYYCQVWDSSSDVVFGGGTKLTVL
notes: huIgG1 F405L; also called C33F59; C33H44/C33L10
B4: C33B89 (antibody, IgG1, V domains shown)
VH: B3 VH with V65L, R68Q, H98Y, T103V, M104A, F105V, R106A, G107A, L108S, M109F
VL: SYVLTQPPSVSVAPGQTARITCGGNNIGSKSVHWSQQKPGQAPVLVVYDDSDRPSGIPERFSGSNSGNTATLTISRVEAGDEADYYCQVWDSNSDHVVFGGGTKLTVL
notes: huIgG1 F405L; also called C33F94; C33H90/C33L51
B5: C33B88 (antibody, IgG1, V domains shown)
VH: QVQLVQSGSELKKPGASVKVSCKASGYTLTRSAMNWVRQAPGQGLEWMGWINTNTGNPTYAQGFTGRFVFSLDTSVNTAYLLISSLKTEDTAVYYCASDILPGYHEDYWGQGTLVTVSS
VL: QSALTQPASVSGSPGQSITISCTGINSDVGSYDLVSWYQQHPGKAPKLLIYDGSERPSGVFGRFSGSKSDNTTSLTISGLQAEDEAAYYCCSYEVTTTYVVFGGGTKLTVL
notes: huIgG1 F405L; also called C33F93; C33H88/C33L61
B6: C33B909 (antibody, V domains shown)
VH: EVQLVESGGGLVQPGRSLRLSCVASGFTFDDYAIHWVRQAPGKGLEWVSGLSWNGGNIGYADSVKGRFTISRDNAKNSLYLQMNSLKTEDTAFYYCTKDTPYGDYFDYWGQGTLVTVSS
VL: DIQMTQSPSSVWASVGDRVTITCRASQGISSWLAWYQQQPGKAPNLLIYRSSSLQSGVPSRFSGSGSGTDFTLTISSLQPEDFATYYCQQDNSFPYTFGQGTKLEIK
notes: OMNIMouse-derived anti-CD33 mAb; same V regions as C33B901; The OMNIMouse mAbs were cloned into both IgG1 and IgG4 PAA; also called C33H249/C33L115
B7: C33B910 (antibody, V domains shown)
VH: B6 VH with V23A, A24G, M83L, T97A, T100S
VL: B6 VL with V11E, Q39K, N45K, R50G, S51A, L54W
notes: OMNIMouse-derived anti-CD33 mAb; same V regions as C33B902; also called C33H250/C33L116

molecular target: Human CD33 ECD-HSA (human); assay: ProteOn SPR, mAb captured by anti-human Fc, 1:1 Langmuir fit
Sequence (chain, as listed by the source): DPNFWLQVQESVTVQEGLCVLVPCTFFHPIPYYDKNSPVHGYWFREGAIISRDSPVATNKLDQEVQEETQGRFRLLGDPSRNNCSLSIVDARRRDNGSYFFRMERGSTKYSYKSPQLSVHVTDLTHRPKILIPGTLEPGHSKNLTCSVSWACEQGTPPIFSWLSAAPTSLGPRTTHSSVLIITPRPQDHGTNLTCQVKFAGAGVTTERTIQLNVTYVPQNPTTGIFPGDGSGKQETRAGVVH
Experimental: (§1) The panel of mAbs was then further characterized for full affinity analysis as well as epitope binning. The binding of anti-CD33 mAbs to recombinant human CD33 ECD-HSA (C33W2) and cyno CD33 ECD-HSA (C33W1) was measured by ProteOn SPR (Bio-Rad). […] Different mAbs were captured on the anti-human Fc IgG surface at 0.25 or 0.5 μg/ml (160-300 RU) in vertical ligand orientation, with the 6th ligand channel as no ligand surface control. Human and cyno CD33-HSA proteins at 0.3 μM concentration in 3-fold dilution series of 5 concentrations flew in as analyte to bind to captured mAbs in the horizontal orientation. A buffer sample was also injected in the 6th channel to monitor the dissociation of captured mAb and baseline stability. […] The raw biding data were processed by double referencing after subtracting the response data from: 1) the inter-spot to correct for the non-specific interactions between the Ag and the empty chip surface; 2) the buffer channel to correct for baseline drifting due to the dissociation of captured mAb surface over time. The processed data at all antigen concentrations for each mAb were globally fit to a 1:1 simple Langmuir binding model to extract estimates of the kinetic (kₒₙ, koff) and affinity (Kd) constants.

Binder | Kd [nM] | koff [s⁻¹] | kon [M⁻¹ s⁻¹]
B1 | 1.92 | 0.000436 | 226000

molecular target: T1, Cyno CD33 ECD-HSA (cynomolgus monkey); assay: as above
T1 construct: Cyno CD33 extracellular domain fused to monomeric human serum albumin and a six-histidine tag; also called C33W1
Experimental: as §1

Binder | Kd [nM] | koff [s⁻¹] | kon [M⁻¹ s⁻¹]
B2 | 0.212 | 7.01e-05 | 331000
B3 | 0.484 | 0.000637 | 1.32e+06
B4 | 0.76 | 0.000201 | 265000

molecular target: Human CD33 ECD-HSA (human); assay: SPRi off-rate screen (IBIS MX96), mAb captured by anti-human Fc; column head prints KD
Experimental: (§2) To begin assessing the biophysical binding properties of the purified mAbs an off-rate screen was performed. 76 OMNIRat anti-CD33 mAbs were tested for binding to recombinant human CD33 ECD-HSA (C33W2) and cyno CD33 ECD-HSA (C33W1) proteins (Janssen production) and the off-rate was measured by IBIS MX96 SPRi array platform (Carterra; Newton, PA). […] The sensor chip was transferred to the Continuous Flow Microspotter (CFM) unit to capture each anti-CD33 mAb at 10 μg/ml for 10 minutes. Binding was measured on IBIS SPRi by single cycle kinetics without regeneration. […] The raw binding data (.trix file format) were referenced and aligned using SprintX software (Wasatch, Ver 1.9.3.2), then exported (.ibmx file format) to Scrubber software (Ver. 2.0) for 1:1 binding kinetic analyses (Wasatch, version 2.0.0.33) to extract the koff results.

Binder | koff [s⁻¹]
B2 | 0.00444
B1 | 0.000228
B3 | 0.0248
B4 | 0.00811
B5 | 0.000825

molecular target: T2, Cyno CD33 full length (cynomolgus monkey); assay: flow cytometry on HEK293F cells expressing cyno CD33
T2 construct: also called cyCD33
Experimental: (§3) The purified antibodies were assessed for binding to stably transfected HEK293F cells expressing human CD33 or cyno CD33 (generation described above) along with the parental HEK293F as negative control. Cells were harvested from tissue culture flasks using non-enzymatic dissociation buffer (Thermo Scientific). The flasks were rinsed twice with PBS and dissociation buffer was added to the flask, and the flask was incubated for 10 minutes at 37° C. until the cells became non-adherent. The cells were centrifuged at 300 g for 5 minutes and resuspended at 1.0×10⁶ cells/ml in staining buffer (Becton Dickinson; Franklin Lakes, NJ). 50,000 cells/well of each cell type was plated in 50 μl of staining buffer in round bottom plates (Becton Dickinson). […] 100 μl staining buffer was added to all wells of each plate, the plates were spun at 300 g for 5 min, the buffer was removed, 200 μl staining buffer was added to all wells of each plate, the plates were spun at 300 g for 5 min, and the buffer was removed. 50 μl of 2 μg/ml of Goat-anti-human Fc AF647 secondary antibody (Jackson Immunoresearch; West Grove, PA) was added to all wells of the plates, and the plates were incubated for 30 min at 4° C. 100 μl staining buffer was added to all wells of the plates, the plates were spun at 300 g for 5 min, and the buffer was removed. 200 μl running buffer (running buffer is Staining buffer, 1 mM EDTA, 0.1% Pluronic Acid) was added to all wells of the plates, the plates were spun at 300 g for 5 min, and the buffer was removed. 30 μl running buffer containing Sytox Green live/dead dye (ThermoFisher) was added to all wells with cells and the plates were read on an iQue IntelliCyt flow cytometer. Cells were gated on forward vs. side scatter to eliminate debris, then on singlets and then on live cells which excluded the Sytox stain. Antibody binding was assessed by the mean fluorescence intensity in the AF647 channel.
(§4) The OmniMouse panel (8 mAbs total) was generated separately and characterized further for binding to cells.

Binder | MFI at 0 nM (background) [MFI] | MFI at 0.6 nM [MFI] | MFI at 6 nM [MFI] | MFI at 60 nM [MFI]
B6 | 124 | 116 | 135 | 180
B7 | 176 | 117 | 135 | 202

molecular target: T3, Cyno CD33 full length, expressed on HEK293F cells (cynomolgus monkey); assay: flow cytometry, HEK293F cells expressing cyno CD33
T3 construct: HEK293F cells transduced with lentivirus containing full length cyno CD33 (Genbank XP_005590138.1); also called cyCD33
Experimental: as §3, with “OMNIRat antibodies identified via immunization, v-region cloned and subsequently expressed and purified were characterized further for binding to CD33 expressing cells and binding to recombinant antigens. The purified” for “The purified”

Binder | MFI at 0 nM mAb (background) [MFI] | MFI at 0.6 nM mAb [MFI] | MFI at 6 nM mAb [MFI] | MFI at 60 nM mAb [MFI]
B2 | 55.1 | 36800 | 47800 | 50300
B1 | 86.3 | 11600 | 20100 | 37300
B3 | 28800 | 38100 | 43000 | 50500
B4 | 113 | 23300 | 34200 | 47300
B5 | 90.1 | 43900 | 43900 | 50400

molecular target: T4, Human CD33 full length, expressed on HEK293F cells (human, UniProt P20138 18-364); assay: flow cytometry, HEK293F cells expressing human CD33
T4 construct: HEK293F cells transduced with lentivirus containing full length human CD33; also called huCD33
T4 sequence (P20138 18-364 limits assumed): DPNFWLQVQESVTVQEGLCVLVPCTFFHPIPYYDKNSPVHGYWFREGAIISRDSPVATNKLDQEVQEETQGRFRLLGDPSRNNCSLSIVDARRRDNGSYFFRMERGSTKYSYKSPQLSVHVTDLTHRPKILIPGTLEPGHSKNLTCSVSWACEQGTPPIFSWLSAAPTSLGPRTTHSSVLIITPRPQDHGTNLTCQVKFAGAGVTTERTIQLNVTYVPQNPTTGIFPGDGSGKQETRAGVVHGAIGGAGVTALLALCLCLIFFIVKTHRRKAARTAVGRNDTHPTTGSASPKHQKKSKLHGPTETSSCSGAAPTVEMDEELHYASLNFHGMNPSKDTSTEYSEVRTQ
Experimental: as §3, with “OMNIRat antibodies identified via immunization, v-region cloned and subsequently expressed and purified were characterized further for binding to CD33 expressing cells and binding to recombinant antigens. The purified” for “The purified”

Binder | MFI at 0 nM mAb (background) [MFI] | MFI at 0.6 nM mAb [MFI] | MFI at 6 nM mAb [MFI] | MFI at 60 nM mAb [MFI]
B2 | 86.5 | 161000 | 340000 | 375000
B1 | 55.2 | 188000 | 476000 | 476000
B3 | 61.3 | 3770 | 27500 | 148000
B5 | 94.8 | 274000 | 481000 | 393000

molecular target: T1, Cyno CD33 ECD-HSA; assay: SPRi off-rate screen (IBIS MX96), mAb captured by anti-human Fc; column head prints Cyno CD33 binding KD
Experimental: as §2

Binder | koff [s⁻¹]
B2 | 0.000135
B1 | 0.000819
B3 | 0.000135
B4 | 4.65e-05
B5 | 0.000389

molecular target: T5, Human CD33 full length (human, UniProt P20138 18-364); assay: flow cytometry on HEK293F cells expressing human CD33
T5 construct: also called huCD33
T5 sequence (P20138 18-364 limits assumed): as above
Experimental: as §3, §4

Binder | MFI at 0 nM (background) [MFI] | MFI at 0.6 nM [MFI] | MFI at 6 nM [MFI] | MFI at 60 nM [MFI]
B6 | 191 | 154 | 170 | 176
B7 | 155 | 151 | 183 | 214

Source: patent publication US20230322924A1 (Janssen / Centocor, published 2023)
